The results in this text go back to patent publication CN106478818A (JIANGSU NOVOMAB BIOPHARMACEUTICALS INC, dated 2017).

Test [1] has as its target T1, TEM8 on TEM8稳定过表达细胞株 (CHO-K1 cells stably transfected with the full-length TEM8 gene) (human, UniProt Q9H6X2 33-564).
T1 construct: also called TEM8过表达细胞; 细胞膜TEM8
The test can be described thus: cell-based binding on plated TEM8-overexpressing cells, anti-human-Eu, time-resolved fluorescence.

In test [2] the target is T2, 重组TEM8蛋白 (recombinant TEM8 protein, 北京义翘神州生物技术有限公司) (UniProt Q9H6X2 33-321, limits assumed).
T2 construct: Bought recombinant protein coated on an ELISA plate; also called TEM8重组蛋白; 肿瘤内皮标记物8
T2 sequence (looked up): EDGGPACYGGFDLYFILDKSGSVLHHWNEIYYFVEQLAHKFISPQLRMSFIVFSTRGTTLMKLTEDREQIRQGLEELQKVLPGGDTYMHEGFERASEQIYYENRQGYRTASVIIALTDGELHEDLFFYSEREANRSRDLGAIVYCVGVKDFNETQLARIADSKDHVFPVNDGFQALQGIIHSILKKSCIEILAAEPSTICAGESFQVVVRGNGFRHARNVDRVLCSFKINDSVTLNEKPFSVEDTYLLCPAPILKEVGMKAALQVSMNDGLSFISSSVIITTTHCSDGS
In words: ELISA, TEM8 protein coated, antibody in 1:4 serial dilution, anti-human IgG-HRP. A general note: In an ELISA, binding on a coated surface is turned into a signal by an enzyme label.

B1: NMT802 (antibody, human IgG1, kappa, V domains shown)
VH: EVTLKESGPALVKPTQTLTLTCTFSGFSLSTSGMGVGWIRQPPGKALEWLAHIWWDDVKRYYPALKSRLTISKDTSKSQVVLTMTNMDPADTATYYCARIGYDWFPYWGQGTLVTVSS
VL: DIQMTQSPSFLSASVGDRVTITCKASQNVGIAVAWYQQKPGKAPKLLIYSASNRYTGVPSRFSGSGSGTDFTLTISYLQSEDFATYYCQQYRSYPLTFGGGTKVEIKR
notes: also called 单克隆抗体NMT802; NMT802抗体
One may read the EC50 as the concentration at which the effect is half-maximal. For the molecule B1, the concentration for a half-maximal effect (EC50) in test [1] was found to be 0.133 µg/mL; in test [2], 0.0324 µg/mL.

B2: NMT803 (antibody, V domains shown)
VH: EVTLKESGPALVKPTQTLTLTCTFSGFSLSTSGMGVGWIRQPPGKALEWLAHIWWDDVKQYYPALKSRLTISKDTSKSQVVLTMTNMDPVDTATYYCARIGYDWFPYWGQGTLVTVSS
VL: DIQMTQSPSFLSASVGDRVTITCKASQNVGIAVAWYQQKPGKAPKLLIYSASNRYTGVPSRFSGSGSGTDFTLTISCLQSEDFATYYCQQYRFKPLTFGGGTKVEIK
notes: also called 单克隆抗体NMT803
Regarding B2, the results for the EC50 in test [1] and in test [2] were 0.765 µg/mL and 0.00544 µg/mL, respectively.
